Laboratory results published in article PMC4684078.

Biological target: mCherry-p62 delta PB1 (recombinant) (human)
Test: SEC-MALS; size exclusion chromatography with static light scattering (Superdex 200 10/300, MiniDawn Treos); 25 mM HEPES pH 7.5, 500 mM NaCl, 1 mM DTT

stoichiometry N: 3
Substance: mCherry-p62 delta PB1 (recombinant) (domain or fragment)
